What was measured:
[1] = NADH-coupled ATPase assay of ZRANB3 proteins; assay type: biochemical; conditions: 150 nM ZRANB3, 5 mM ATP, 0.5 μM flap DNA, 24 °C, average rates
Protocol: The NADH-coupled ATPase assay is based on a reaction in which the regeneration of hydrolysed ATP is coupled to the oxidation of NADH[59]. It was used as described, with minor modifications. ZRANB3 (150 nM) was added to a 150 μl reaction containing 25 mM Tris-Cl pH 7.5, 13 mM MgCl2, 1.8 mM DTT, 100 μg ml^−1 BSA, 3 mM phosphoenolpyruvate, 36 U ml^−1 pyruvate kinase, 20 U ml^−1 lactate dehydrogenase, 0.5 μM flap DNA, and 5 mM ATP, with 750 μM NADH added immediately before ZRANB3. Reactions were mixed for 1 min on a shaker at 23 °C and analysed by measuring A340 nm at 20 s intervals during 60 min, on a Spectramax 250 microplate spectrophotometer at 24 °C. Linear titration of freshly prepared NADH was performed to obtain a standard curve for units of absorbance mM^−1 NADH. ATPase rates were calculated from data collected between time points where product formation was linear with respect to time.

U2OS cells = test: Colocalization of YFP-ZRANB3 foci with endogenous PCNA; assay type: cell-based; conditions: average of three experiments
Source text: Figure 5 PCNA-dependent recruitment of ZRANB3. (a) Recruitment of FEN1 to the sites of laser induced DNA damage is abrogated by the mutations in the PIP box (Q337A, F343A and F344A). U2OS cells were transiently transfected with the indicated YFP constructs and analysed by live-cell imaging. Shown are representative images at the indicated time points post damage. (b) Recruitment of the YFP-tagged PIP box and APIM motif to the sites of laser induced DNA damage. Recruitment is abrogated by the mutations of the conserved residues in the PIP box and the APIM motif. […] The percentage of cells containing ZRANB3 foci that colocalize with PCNA was determined. […]
U2OS cells (ATCC) were seeded onto glass coverslips and transfected with the YFP constructs using Lipofectamine 2000 (Life Technologies). […] The coverslips were mounted in ProLong Gold anti-fade reagent with DAPI (Life Technologies) and analysed by confocal microscopy.
For the recruitment of ZRANB3 to stalled replication forks, U2OS cells were seeded onto glass coverslips and transfected with YFP-ZRANB3 constructs. […] Finally, the samples were analysed by confocal microscopy. For each experiment, more than 100 cells were counted, and the results from three independent transfections were pooled for statistical analyses.

ATP hydrolysis rate ([1]; A340 nm): 16.59 ± 0.34 µmol/L/min
k [1]: 110.65 ± 2.27 min⁻¹
B1: WT ZRANB3: full-length human ZRANB3, recombinant; YFP-tagged in the cell assay (protein)
chain: MPRVHNIKKSLTPHISCVTNESDNLLDFLPDRLRAKLLPFQKDGIIFALKRNGRCMVADEMGLGKTIQAIGITYFYKEEWPLLIVVPSSLRYPWTEEIEKWIPELSPEEINVIQNKTDVRRMSTSKVTVLGYGLLTADAKTLIDALNNQNFKVVIVDESHYMKSRNATRSRILLPIVQKARRAILLTGTPALGRPEELFMQIEALFPQKFGRWTDYAKRYCNAHIRYFGKRPQWDCRGASNLNELHQLLSDIMIRRLKTEVLTQLPPKVRQRIPFDLPSAAAKELNTSFEEWEKIMRTPNSGAMETVMGLITRMFKQTAIAKAGAVKDYIKMMLQNDSLKFLVFAHHLSMLQACTEAVIENKTRYIRIDGSVSSSERIHLVNQFQKDPDTRVAILSIQAAGQGLTFTAASHVVFAELYWDPGHIKQAEDRAHRIGQCSSVNIHYLIANGTLDTLMWGMLNRKAQVTGSTLNGRKEKIQAEEGDKEKWDFLQFAEAWTPNDSSEELRKEALFTHFEKEKQHDIRSFFVPQPKKRQLMTSCDESKRFREENTVVSSDPTKTAARDIIDYESDVEPETKRLKLAASEDHCSPSEETPSQSKQIRTPLVESVQEAKAQLTTPAFPVEGWQCSLCTYINNSELPYCEMCETPQGSAVMQIDSLNHIQDKNEKDDSQKDTSKKVQTISDCEKQALAQSEPGQLADSKEETPKIEKEDGLTSQPGNEQWKSSDTLPVYDTLMFCASRNTDRIHIYTKDGKQMSCNFIPLDIKLDLWEDLPASFQLKQYRSLILRFVREWSSLTAMKQRIIRKSGQLFCSPILALEEITKQQTKQNCTKRYITKEDVAVASMDKVKNVGGHVRLITKESRPRDPFTKKLLEDGACVPFLNPYTVQADLTVKPSTSKGYLQAVDNEGNPLCLRCQQPTCQTKQACKANSWDSRFCSLKCQEEFWIRSNNSYLRAKVFETEHGVCQLCNVNAQELFLRLRDAPKSQRKNLLYATWTSKLPLEQLNEMIRNPGEGHFWQVDHIKPVYGGGGQCSLDNLQTLCTVCHKERTARQAKERSQVRRQSLASKHGSDITRFLVKK
modifications: left off: His6, N-terminal, cleaved
notes: full-length human ZRANB3, recombinant; YFP-tagged in the cell assay
cells that formed ZRANB3 foci (colocalizing with PCNA) (U2OS cells; U2OS cells transfected with YFP-ZRANB3, UV 40 J m^−2, 6 h recovery): > 95%
cells that formed ZRANB3 foci (colocalizing with PCNA) (U2OS cells; U2OS cells transfected with YFP-ZRANB3, undamaged conditions): ~20%
